B1: CM33322 Ab11 (anti-MICA antibody ID-8 of Table 1) (antibody, V domains shown)
VH: QVQLQESGPGLVKPSENLSLTCTVSDASMSDYHWSWIRQAAGKGLEWIGRMYSTGSPYYKPSLKGRVTMSIDTSKNQFSLKLASVTAADTAIYYCASGQHIGGWVPPDFWGQGTLVTVSS
VL: DIVMTQTPLSSPVTLGQPASISCRSSEGLVYSDGDTYLSWFHQRPGQPPRLLIYKISNRFSGVPDRFSGSGAGTDFTLKISRVEAEDVGVYYCMQATHFPWTFGQGTKVEVKR
B2: antibody ID 4 (anti-angiopoietin-2 antibody) (antibody, V domains shown)
VH: EVQLVESGGGLVQPGGSVRLSCAASGFILSNFAMSWVRQAPGKGLDWVSGNFGGRENTYYADSVKGRFTISRDSSKSTLYLQMNNLRAEDTAVYYCARGDYHGSGAHFDYWGQGILVTVSS
VL: DIVMTQSPLSSPVILGQPASISCRSSQSLLHSDGNTYLSWLHQRPGQPPRLLIYQISNRFSGVPDRFSGSGTGTDFTLKISRVEAEDAGIYYCMQGTEFPRTFGQGTKVEIK
B3: antibody ID 5 (anti-angiopoietin-2 antibody) (antibody, V domains shown)
VH: EVQLVESGGGLIQPGGSLRLSCATSGFTFRTSSMSWVRRAPGKGLEWVSAIGAESHDTHYTDSAEGRFTISKDYSKNTVYLQMNGLRVDDTAIYYCAHHYYYGSRQKPKDWGDAFDMWGQGTMVSVSS
VL: DIQMTQSPSSVSASVGDRVTITCRASQDISTWLTWYQQRAGKAPNLLIYGASTLEDGVPSRFSGSGSGTDFTLTIDSLQPDDFATYYCQQSHSFPYTFGQGTQLGIS
B4: anti-Ang2 Ab6 (antibody ID-10 of Table 1, anti-angiopoietin-2 antibody) (antibody, V domains shown)
VH: EVQLVESGGGLIQPGGSLRLSCAASGFLISSYFMSWVRQAPGKGPEWVSVIYSDGSTYYVDSVKGRFTISTDNSKNTLYLQMNSLRAEDTARYYCATRHLNYDGDHWGQGTLVTVSS
VL: DVVMTQSPLSLPVTLGQPASISCRSSQSLVHSDGNTYLNWFHQRPGQSPRRLIYKVSKRDSGVPDRFSGSGSGSDFTLKISRVEAEDVGIYYCMQGTHWPTFGQGTKVEIKR
notes: also called anti-Ang6 Ab2
B5: CM24002 Ab2 (anti-MICA antibody ID-6 of Table 1) (antibody, V domains shown)
VH: QVQLQESGPGLVEPSGTLSLTCTVSGGSISRSNWWSWVRQPPGEGLEWIGEIHHIGRSSYNPSLKSRVTMSVDKSQNQFSLRLTSVTAADTAVYYCAKNGYYAMDVWGQGTTVTVSS
VL: EIVLTQSPGTLSLSPGERATLSCRASQSVSSDFLAWYQQKPGQAPRLLIYATSFRATGISDRFSGSGSGTDFSLTINRLEPEDFAVYYCQHYRSSPPWYTFAQGTKLDMRRTVAAPSV
B6: antibody ID 2 (anti-angiopoietin-2 antibody) (antibody, V domains shown)
VH: EVQLVESGGGLVQPGGSLRLSCAASGFTFSSYAMSWVRQAPGKGLEWVSGIYWSGGSTYYADSVKGRFTISRDISKNTLYLQMNSLRADDTAVYYCARGDYYGSGAHFDYWGQGTLVTVSS
VL: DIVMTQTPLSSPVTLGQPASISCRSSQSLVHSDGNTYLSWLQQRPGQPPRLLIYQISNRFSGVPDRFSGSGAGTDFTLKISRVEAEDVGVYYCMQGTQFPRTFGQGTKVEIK
B7: antibody ID 3 (anti-angiopoietin-2 antibody) (antibody, V domains shown)
VH: EVQLVESGGGLVQPGGSLRLSCAASGFTFSNNWMHWVRQAPGKGLEWISEIRSDGNFTRYADSMKGRFTISRDNAKSTLYLQMNSLRVEDTGLYYCARDYPYSIDYWGQGTLVTVSS
VL: DIVMTQTPLSSPVTLGQPASISCTSSQSLVHSNGNTYLSWLQQRPGQPPRLLIYEISKRVSGVPDRFSGSGAGTDFTLKISRVEAEDVGVYYCMQGKQLRTFGQGTKLEIK
B8: CM24002 Ab4 (anti-MICA antibody ID-7 of Table 1) (antibody, V domains shown)
VH: QVQLQESGPGLVKPSGTLSLTCAVSGASITNGAWWSWVRQPPGKGLEWIGEIYLNGNTNSNPSLKSRVIISVDKSKNHFSLTLNSVTAADTAVYYCAKNAAYNLEFWGQGALVTVSS
VL: EIVLTQSPGTLSLSPGERATLSCRASQTVSSPYVAWYQQKRGQAPRLLIYGASTRATGIPDRFSGSGSGTDFTLTISRLEPEDFAVYYCQQYDRSYYYTFGQGTKLEIK

Legend:
[1] = biological target: T1, soluble, recombinant MICB with a single BirA biotinylation site (human, UniProt Q29980 23-309); test: cytometric bead assay, biotinylated protein on streptavidin beads, FITC anti-human IgG
T1 sequence (looked up): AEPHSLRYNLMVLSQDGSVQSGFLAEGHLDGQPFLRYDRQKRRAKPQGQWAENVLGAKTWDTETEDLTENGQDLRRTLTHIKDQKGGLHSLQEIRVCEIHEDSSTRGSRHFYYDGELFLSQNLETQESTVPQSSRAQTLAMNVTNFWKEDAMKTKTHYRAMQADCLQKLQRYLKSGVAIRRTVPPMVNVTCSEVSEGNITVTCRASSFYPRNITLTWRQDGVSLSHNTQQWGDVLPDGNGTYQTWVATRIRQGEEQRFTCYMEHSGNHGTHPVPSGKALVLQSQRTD

[2] = biological target: T2, Ang-like-3 (human, UniProt Q9Y5C1 17-460); test: ELISA, protein coated on plate, anti-human IgG-Europium
T2 sequence (looked up): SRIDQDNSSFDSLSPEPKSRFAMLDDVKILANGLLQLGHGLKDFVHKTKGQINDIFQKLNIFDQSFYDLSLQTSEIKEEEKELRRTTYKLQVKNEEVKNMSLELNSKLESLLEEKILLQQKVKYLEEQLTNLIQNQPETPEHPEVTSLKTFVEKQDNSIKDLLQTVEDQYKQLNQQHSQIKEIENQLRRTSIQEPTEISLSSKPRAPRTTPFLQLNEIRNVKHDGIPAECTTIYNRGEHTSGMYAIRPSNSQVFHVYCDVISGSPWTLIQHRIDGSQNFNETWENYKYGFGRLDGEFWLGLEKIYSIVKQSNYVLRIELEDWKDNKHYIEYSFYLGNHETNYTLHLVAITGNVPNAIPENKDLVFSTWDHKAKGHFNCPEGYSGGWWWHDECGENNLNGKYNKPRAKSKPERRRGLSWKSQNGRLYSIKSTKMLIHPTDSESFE

[3] = biological target: T3, recombinant human angiopoietin-4 (human, UniProt Q9Y264 25-503); test: ELISA, angiopoietin coated at 4 µg/mL, antibody 20 µg/mL-0.16 µg/mL, anti-human IgG-Europium
T3 construct: also called Ang-4; Ang4
T3 sequence (looked up): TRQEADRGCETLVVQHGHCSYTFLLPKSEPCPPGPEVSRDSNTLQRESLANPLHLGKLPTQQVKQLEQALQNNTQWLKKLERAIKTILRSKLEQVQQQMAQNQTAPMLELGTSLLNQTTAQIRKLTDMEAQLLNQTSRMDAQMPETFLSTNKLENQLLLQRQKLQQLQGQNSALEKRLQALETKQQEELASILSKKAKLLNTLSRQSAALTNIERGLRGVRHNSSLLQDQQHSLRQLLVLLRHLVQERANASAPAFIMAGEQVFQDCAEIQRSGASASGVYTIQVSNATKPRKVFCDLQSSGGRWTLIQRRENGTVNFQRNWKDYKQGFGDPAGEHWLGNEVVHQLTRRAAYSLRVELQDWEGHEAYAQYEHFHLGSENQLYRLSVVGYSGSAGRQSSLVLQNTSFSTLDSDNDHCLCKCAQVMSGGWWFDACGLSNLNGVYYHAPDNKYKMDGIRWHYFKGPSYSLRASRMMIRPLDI

[4] = biological target: T4, recombinant human angiopoietin-2 (human, UniProt O15123 19-496); test: as above
T4 construct: also called Ang-2
T4 sequence (looked up): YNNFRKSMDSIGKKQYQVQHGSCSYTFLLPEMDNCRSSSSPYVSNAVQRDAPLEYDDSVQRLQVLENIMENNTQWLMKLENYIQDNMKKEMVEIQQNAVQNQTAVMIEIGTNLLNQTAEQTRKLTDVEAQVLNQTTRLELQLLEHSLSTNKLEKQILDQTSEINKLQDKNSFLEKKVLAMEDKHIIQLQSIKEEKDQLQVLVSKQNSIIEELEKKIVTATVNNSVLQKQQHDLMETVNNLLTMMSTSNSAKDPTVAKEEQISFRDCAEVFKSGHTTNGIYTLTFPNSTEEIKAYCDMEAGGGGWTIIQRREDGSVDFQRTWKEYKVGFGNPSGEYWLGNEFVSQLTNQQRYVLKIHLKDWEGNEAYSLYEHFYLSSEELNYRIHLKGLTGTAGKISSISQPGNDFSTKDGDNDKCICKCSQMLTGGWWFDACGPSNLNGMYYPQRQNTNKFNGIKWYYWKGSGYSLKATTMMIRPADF

[5] = biological target: T5, recombinant human angiopoietin-1 (human, UniProt Q15389 20-498); test: as above
T5 construct: also called Ang-1
T5 sequence (looked up): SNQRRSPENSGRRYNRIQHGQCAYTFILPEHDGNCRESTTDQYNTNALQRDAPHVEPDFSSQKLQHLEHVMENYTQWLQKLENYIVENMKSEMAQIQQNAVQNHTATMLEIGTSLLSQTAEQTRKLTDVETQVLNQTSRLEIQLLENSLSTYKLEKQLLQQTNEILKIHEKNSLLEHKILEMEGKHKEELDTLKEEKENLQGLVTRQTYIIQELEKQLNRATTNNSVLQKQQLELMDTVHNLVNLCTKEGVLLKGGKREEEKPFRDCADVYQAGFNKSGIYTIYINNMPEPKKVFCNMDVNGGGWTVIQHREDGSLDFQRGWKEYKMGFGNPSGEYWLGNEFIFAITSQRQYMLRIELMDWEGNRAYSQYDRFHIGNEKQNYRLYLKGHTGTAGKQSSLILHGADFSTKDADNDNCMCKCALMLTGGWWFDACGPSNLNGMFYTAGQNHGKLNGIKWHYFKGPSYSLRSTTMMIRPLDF

[6] = biological target: T3, recombinant human angiopoietin-4; test: ELISA, protein coated at 4 µg/ml, antibody at 20, 4, 0.8 and 0.16 µg/ml, europium conjugated anti-human IgG
[7] = biological target: T4, recombinant human angiopoietin-2; test: as above
[8] = biological target: T5, recombinant human angiopoietin-1; test: as above

Binder | binding result [1] | binding result [2] | binding result [3] | binding result [4] | binding result [5] | other results
B1 | binds | – | – | – | – | –
B2 | – | no binding (tested: 20 µg/mL-0.16 µg/mL) | binds | binds | binds | –
B3 | – | no binding (tested: 20 µg/mL-0.16 µg/mL) | binds | binds | binds | –
B4 | – | – | – | – | – | binding result [6]: binds; binding result [7]: binds; binding result [8]: binds
B5 | binds | – | – | – | – | –
B6 | – | no binding (tested: 20 µg/mL-0.16 µg/mL) | binds | binds | binds | –
B7 | – | no binding (tested: 20 µg/mL-0.16 µg/mL) | binds | binds | binds | –
B8 | binds | – | – | – | – | –

Source: patent US20170008962A1 (Dana-Farber, published 2017)
